Source: patent US8257698B2, “Protein engineering of monoacylglycerol lipase (MGLL)” (Janssen Pharmaceutica N.V., priority 2008, dated 2012)

Tests used:
MGLL [1] = test: Kinetic analysis: hydrolysis of Coumarin Arachidonate (C-A) by MGLL constructs; type: biochemical, human; conditions: estimated; limited by solubility of C-A; read-out: apparent KM for C-A
Excerpt: (§1) A small fluorescent substrate, 4-methyl coumarin butyrate (4MC-B) was used to compare the activity of the engineered mutants to the activity of wt-MGLL (hMGLL 1-303) (SEQ ID NO: 3). The catalytic efficiency (kcat/KM) for the hydrolysis of the 4MC-B was similar for wt-MGLL (hMGLL 1-303) (SEQ ID NO: 3) and all MGLL mutants tested (Table 2). A larger more aliphatic fluorescent substrate, Coumarin Arachidonate (C-A), structurally more closely related to the MGLL natural substrate, 2-AG, was used to compare the activity of wt-MGLL (hMGLL 1-303) (SEQ ID NO: 3) to TEV cleaved mut-MGLL (hMGLL 1-303 L169S, L176S) (SEQ ID NO: 5).
(§2) The Michaelis-Menten parameters for the hydrolysis of 4-methylcoumarin butyrate (4MC-B) and coumarin arachidonate (C-A) substrate were determined using 4-5 nM of MGLL in 20 mM Pipes pH 7 and 150 mM NaCl at 37° C. The change in fluorescence due to substrate hydrolysis was monitored using excitation/emission wavelengths of 335/440 in a Safire II instrument from Tecan. The hyperbolic rates versus substrate concentration curves for the hydrolysis of 4MC-B were fit to the Michaelis-Menten equation using Excel.
The apparent kcat/KM ratio for the hydrolysis of C-A was determined at [S]<<KM. […] The kcat/KM values reported are the average from independent values determined from five substrate concentrations ranging from 700 to 40 nM.

MGLL [2] = test: Kinetic analysis: hydrolysis of 4-methyl coumarin butyrate (4MC-B) by MGLL constructs; type: biochemical, human; conditions: substrate 4MC-B; 4-5 nM MGLL, 20 mM Pipes pH 7, 150 mM NaCl, 37° C.; average of 2 or 4 separate assays
Excerpt: as §1, §2

[3] = Size exclusion chromatography of MGLL purified in the absence of detergent (aggregation/monomer); type: physicochemical
Description: A pilot purification of wt-MGLL (hMGLL 1-303) (SEQ ID NO: 3), performed in the complete absence of detergent, generated no protein (data not shown). A second purification of wt-MGLL (hMGLL 1-303) (SEQ ID NO: 3) was done with detergent in the lysis buffer only. Frozen cell pellets for wt-MGLL (hMGLL 1-303) (SEQ ID NO: 3) were thawed, resuspended, and lysed in Bugbuster® lysis buffer for 1 hour at 4° C. Bugbuster® lysis buffer is a proprietary lysis buffer from […] that contains detergent. The lysate was clarified by centrifugation at 40,000×g for 1 hr. No detergent was added at this point or during the rest of the purification. From this point forward, the purification protocol and buffers were the same as described below for mut-MGLL. An average of 2.2 mg of wt-MGLL (hMGLL 1-303) (SEQ ID NO: 3) per liter of cell culture was obtained.
Mutant MGLL (mut-MGLL) constructs were purified in the absence of detergent. Frozen cell pellets were thawed and resuspended in buffer A (50 mM Hepes buffer pH 7.5, 400 mM NaCl, 5% glycerol, 0.05% BME, 1× Complete EDTA-free protease inhibitor cocktail tablets (Roche)), dounce homogenized and mechanically lysed with a microfluidizer processor (Microfluidics). The extract was clarified by centrifugation at 40,000×g for 1 hr. The cleared lysate was loaded on a 1 ml His-Trap FF Crude column (GE-Healthcare) at 4° C. using the AktaXpress system. For larger preparations, a 5 ml His-Trap FF Crude column was used. The column was washed with 10-15 column volumes (CV) of buffer A containing 30 mM imidazole and mut-MGLL was eluted with 5 CV of 50 mM Hepes buffer pH 7.5, 400 mM NaCl, 5% glycerol, 0.05% BME, 400 mM imidazole. In most preparations, 30 mM imidazole was included in Buffer A from the beginning of the preparation to reduce non-specific binding on the His-Trap column. […] Fractions were analysed by SDS-PAGE. […] Purification yields were determined by Bradford assay using the protein assay kit from BioRad according to manufacturer's instruction with BSA as a standard (Bradford 1976).

[4] = Thermofluor thermal stability (melting transition) of MGLL; type: physicochemical; conditions: for Tm (midpoint of the melting transition): 0.05 mg/ml protein, 1,8-ANS
Excerpt: The Thermofluor® assay is a powerful tool to screen for small molecule inhibitors interacting with a protein's active site or allosteric site. The assay detects small changes in the intrinsic melting temperature of proteins based on binding of ligands. Compounds that interact preferentially with the native form of the protein will increase the Tm, the temperature at which half of the protein is unfolded (Pantoliano et al. 2001). The technique monitors changes in the fluorescent intensity of dyes such as 1-anilinonaphthalene-8-sulfonic acid (1,8-ANS). The fluorescent dyes are quenched in aqueous environments but increase in fluorescence on binding to the hydrophobic core of denatured proteins.
Thermofluor® assays were conducted to characterize wt-MGLL (hMGLL 1-303) (SEQ ID NO: 3) and mut-MGLL (hMGLL 1-303 L169S, L176S) and evaluate if the MGLL mutants could be used for high-throughput screening using Thermofluor®. Three microliters of protein at a concentration of 0.05 mg/ml in 50 mM Pipes pH 7, 200 mM NaCl, 100 μM 1,8-ANS, and 0.001% Tween was added to pre-dispensed compound plates. Wells were overlaid with silicone oil (1 μL, Fluka, type DC 200) to prevent evaporation. Final compound concentrations varied from 150 to 0.15 μM. Assay plates were heated at a rate of 1° C./min for all experiments over a temperature range sufficient to measure protein unfolding. Fluorescence was measured by continuous illumination with UV light (Hamamatsu LC6) supplied via fiber optic and filtered through a custom band-pass filter (380-400 nm; >60D cutoff). Fluorescence emission was detected by measuring light intensity using a CCD camera (Sensys, Roper Scientific) filtered to detect emission at 500±25 nm, resulting in simultaneous and independent readings of all 384 wells. One or more images were collected at each temperature, and the sum of the pixel intensity in a given area of the assay plate was recorded vs temperature, and fit to standard equations to yield the Tm.

[5] = Circular dichroism structural analysis; type: physicochemical; conditions: 5 μM protein, 10 mM cacodylic acid pH 7, 140 mM NaCl
Description: Circular dichroism experiments were performed on a Circular Dichroism Spectrometer Model 202 from Aviv Instruments Inc. The CD scans of wt-MGLL (hMGLL 1-303) (SEQ ID NO: 3) and TEV cleaved mut-MGLL (hMGLL 1-303 L169S, L176S) (SEQ ID NO: 5) (5 μM protein in 10 mM cacodylic acid pH 7 and 140 mM NaCl) were measured from 200 to 260 nm. Temperature melts were monitored at 210 nm.

[6] = size exclusion, purified in the absence of detergent

Molecule	Km (MGLL [1])	Kcat (MGLL [2])	Km (MGLL [2])	aggregation by size exclusion chromatography (in words) ([3]; detergent in the lysis buffer only)	aggregation [3, 6]	quality of the melting transition [4]	Tm (midpoint of the melting transition) [4]	CD scans 200 to 260 nm compared with wt-MGLL purified in the presence of detergent [5]	monomer [3, 6]
CCCCC/C=C/C/C=C\C/C=C/C/C=C/CCCC(=O)Oc1ccc2ccc(=O)oc2c1 [C-A, Coumarin Arachidonate]	> 30 µM	–	–	–	–	–	–	–	–
wt-MGLL.1-303: wild-type human MGLL isoform 2 amino acids 1-303 with N-terminal His tag and TEV site, SEQ ID NO: 3 (protein, N-terminal His tag and TEV site; Human) MVDHHHHHHENLYFQGMPEESSPRRTPQSIPYQDLPHLVNADGQYLFCRYWKPTGTPKALIFVSHGAGEHSGRYEELARMLMGLDLLVFAHDHVGHGQSEGERMVVSDFHVFVRDVLQHVDSMQKDYPGLPVFLLGHSMGGAIAILTAAERPGHFAGMVLISPLVLANPESATTFKVLAAKVLNLVLPNLSLGPIDSSVLSRNKTEVDIYNSDPLICRAGLKVCFGIQLLNAVSRVERALPKLTVPFLLLQGSADRLCDSKGAYLLMELAKSQDKTLKIYEGAYHVLHKELPEVTNSVFHEINMWVSQRTATAGTASPP	–	1.13 s⁻¹	162 µM	complete aggregation	100%	very poor transition	58 °C	–	–
mut-MGLL 1-303, L169S, L176S, K36A, K226A: engineered form of human MGLL, cap plus surface mutations (protein) MVDHHHHHHENLYFQGMPEESSPRRTPQSIPYQDLPHLVNADGQYLFCRYWAPTGTPKALIFVSHGAGEHSGRYEELARMLMGLDLLVFAHDHVGHGQSEGERMVVSDFHVFVRDVLQHVDSMQKDYPGLPVFLLGHSMGGAIAILTAAERPGHFAGMVLISPLVLANPESATTFKVLAAKVLNSVLPNLSSGPIDSSVLSRNKTEVDIYNSDPLICRAGLKVCFGIQLLNAVSRVERALPALTVPFLLLQGSADRLCDSKGAYLLMELAKSQDKTLKIYEGAYHVLHKELPEVTNSVFHEINMWVSQRTATAGTASPP	–	0.5 s⁻¹	123 µM	–	–	–	–	–	–
mut-MGLL. 1-303, L169S, L176S, K165A: engineered form of human MGLL, cap plus surface mutations (protein) MVDHHHHHHENLYFQGMPEESSPRRTPQSIPYQDLPHLVNADGQYLFCRYWKPTGTPKALIFVSHGAGEHSGRYEELARMLMGLDLLVFAHDHVGHGQSEGERMVVSDFHVFVRDVLQHVDSMQKDYPGLPVFLLGHSMGGAIAILTAAERPGHFAGMVLISPLVLANPESATTFKVLAAAVLNSVLPNLSSGPIDSSVLSRNKTEVDIYNSDPLICRAGLKVCFGIQLLNAVSRVERALPKLTVPFLLLQGSADRLCDSKGAYLLMELAKSQDKTLKIYEGAYHVLHKELPEVTNSVFHEINMWVSQRTATAGTASPP	–	0.45 s⁻¹	137 µM	–	–	–	–	–	–
mut-MGLL. 1-303, L169S, L176S: engineered human MGLL 1-303 with cap-domain mutations L169S, L176S; SEQ ID NO: 4, SEQ ID NO: 5 after TEV cleavage (protein, His tag and TEV site; SEQ ID 5 after TEV cleavage; Human) MVDHHHHHHENLYFQGMPEESSPRRTPQSIPYQDLPHLVNADGQYLFCRYWKPTGTPKALIFVSHGAGEHSGRYEELARMLMGLDLLVFAHDHVGHGQSEGERMVVSDFHVFVRDVLQHVDSMQKDYPGLPVFLLGHSMGGAIAILTAAERPGHFAGMVLISPLVLANPESATTFKVLAAKVLNSVLPNLSSGPIDSSVLSRNKTEVDIYNSDPLICRAGLKVCFGIQLLNAVSRVERALPKLTVPFLLLQGSADRLCDSKGAYLLMELAKSQDKTLKIYEGAYHVLHKELPEVTNSVFHEINMWVSQRTATAGTASPP	–	0.8 s⁻¹	136 µM	–	–	strong transition	56.7 °C	similar	90%
mut-MGLL 1-303, L169S, L176S, K226A: engineered form of human MGLL, cap plus surface mutations (protein) MVDHHHHHHENLYFQGMPEESSPRRTPQSIPYQDLPHLVNADGQYLFCRYWKPTGTPKALIFVSHGAGEHSGRYEELARMLMGLDLLVFAHDHVGHGQSEGERMVVSDFHVFVRDVLQHVDSMQKDYPGLPVFLLGHSMGGAIAILTAAERPGHFAGMVLISPLVLANPESATTFKVLAAKVLNSVLPNLSSGPIDSSVLSRNKTEVDIYNSDPLICRAGLKVCFGIQLLNAVSRVERALPALTVPFLLLQGSADRLCDSKGAYLLMELAKSQDKTLKIYEGAYHVLHKELPEVTNSVFHEINMWVSQRTATAGTASPP	–	0.633 s⁻¹	110 µM	–	–	–	–	–	–
